Measured values: patent publication CN110713539A

Target: CEA抗原 (癌胚抗原, Carcinoembrynio Antigen), soluble antigen (UniProt P06731)
Assay: SPR (Biacore), antibody immobilised on chip, antigen in solution, 1:1 binding

UniProt P06731, sequence (P06731 35-685 limits assumed): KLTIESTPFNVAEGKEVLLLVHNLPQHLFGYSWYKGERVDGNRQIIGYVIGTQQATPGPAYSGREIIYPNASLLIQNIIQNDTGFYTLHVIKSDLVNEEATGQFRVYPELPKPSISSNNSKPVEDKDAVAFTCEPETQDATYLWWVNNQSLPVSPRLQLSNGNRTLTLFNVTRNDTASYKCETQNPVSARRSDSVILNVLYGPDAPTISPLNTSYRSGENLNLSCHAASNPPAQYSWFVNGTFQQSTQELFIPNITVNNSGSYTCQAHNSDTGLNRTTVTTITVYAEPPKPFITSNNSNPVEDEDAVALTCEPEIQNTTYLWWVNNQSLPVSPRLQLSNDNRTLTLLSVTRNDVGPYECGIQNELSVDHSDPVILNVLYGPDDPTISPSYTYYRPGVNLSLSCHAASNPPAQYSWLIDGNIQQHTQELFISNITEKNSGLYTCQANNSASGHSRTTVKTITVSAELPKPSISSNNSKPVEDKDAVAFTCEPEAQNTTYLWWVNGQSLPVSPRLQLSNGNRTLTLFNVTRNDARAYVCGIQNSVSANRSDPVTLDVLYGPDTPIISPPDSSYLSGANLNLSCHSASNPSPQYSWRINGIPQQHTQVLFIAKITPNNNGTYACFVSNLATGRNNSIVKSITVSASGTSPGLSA

Kd: 43.1 nM
koff: 0.0111 s⁻¹
kon: 259000 M⁻¹ s⁻¹
B1: OLD-2ND-3-H6-scFv-mIgG1 (Fc fusion, part only; not given: linker and mouse Fc tag, not shown: a dimerising Fc or GST)
chain, part: ETTLTQSPGTLSLSPGERATLSCRASQSVNNNFLGWYQQRVGQAPRLLIYGASSRATGIPDRFSGSGSGTDFTLTISRLEPEDFAVYYCQQYGSSPLTFGGGTKVEIKMAQVQLQESGGGSVQPGGSLRLSCAASGFTFSSYAMSWVRQAPGKGLEWVSHISGSGGNTYYADSVKGRFTISRDNSKNTLYLQMNSLRAEDTAVYYCAKSWGSSNYGTFDIWGQGTVVTVSS
